B1: CDKL4 (parent)
chain: AVKKFVESEDDPVVKKIALREIRM
B2: SPOPL (parent)
chain: YTGRAPNLDKMADNLLAAADKYAL

Variants of: B1
Assay: protein stability index of a GFP-peptide fusion (GPS, HEK-293T) (PSI 1-6); higher = more stable
Details: c terminus: a fixed tail appended
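Further: lentivirally expressed fusions sorted by FACS into six bins by GFP to DsRed ratio, PSI derived from sequencing read proportions per bin multiplied by bin number.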

Protein stability index: each site, then its substitutions
S8: C 2.54; D 3.12; E 3.07; F 2.08; G 2.68; H 3.02; I 2.54; K 3.15; L 1.91; M 3.04; N 3.32; P 2.7; Q 3.27; R 2.43; T 3.14; V 2.64; W 2.24; Y 3.17
E9: A 2.4; C 2.23; D 2.69; F 2.09; G 2.43; H 2.71; I 2.51; K 2.69; L 1.64; M 1.76; N 2.56; P 2.34; Q 3.19; R 2.51; S 2.97; T 3.02; V 2.48; W 2.38; Y 1.74
D10: A 2.58; C 2.15; E 2.99; F 1.77; G 3.07; H 2.82; I 1.81; K 2.68; L 1.68; M 2.65; N 2.91; P 2.72; Q 2.8; R 3.15; S 2.83; T 2.78; V 2.23; W 2.16; Y 1.84
D11: A 2.61; C 2.16; E 3.15; F 2.25; G 1.8; H 2.96; I 2.58; K 3.22; L 1.81; M 2.44; N 3.19; P 2.81; Q 2.81; R 2.61; S 2.87; T 3; V 2.44; W 3.34; Y 2.46
P12: A 3.04; C 3.05; D 3.22; E 3.88; F 2.66; G 2.57; H 2.77; I 2.52; K 3.23; L 2.55; M 1.95; N 3.08; Q 2.45; R 3.46; S 2.99; T 2.76; V 2.48; W 1.82; Y 2.18
V13: A 3.23; C 2.67; D 3.67; E 3.35; F 2.5; G 3.54; H 3.11; I 2.83; K 3.27; L 2.93; M 2.73; N 3.28; P 3.29; Q 3.47; R 3.08; S 3.48; T 3.77; W 2.49; Y 2.3
V14: A 3.01; C 3.74; D 3.48; E 4.1; F 2.01; G 2.97; H 3.38; I 2.56; K 2.82; L 2.89; M 2.69; N 3.5; P 3.12; Q 3.71; R 3.44; S 2.98; T 3.26; W 2.65; Y 2.54
K15: A 2.26; C 2.52; D 3.59; E 3.44; F 2.58; G 2.82; H 3.14; I 2.4; L 1.95; M 1.87; N 2.88; P 3.46; Q 2.86; R 2.81; S 2.59; T 2.66; V 1.6; W 2.06; Y 1.81
K16: A 3.77; C 2.92; D 3.48; E 3.95; F 2.77; G 3.57; H 3.22; I 2.19; L 2.63; M 3.17; N 3.52; P 2.61; Q 3.48; R 3.18; S 3.23; T 3.11; V 2.27; W 2.05; Y 2.44
I17: A 3.95; C 3.32; D 4.36; E 3.93; F 2.79; G 3.08; H 3.33; K 3.87; L 2.57; M 2.87; N 3.7; P 3.53; Q 3.46; R 3.45; S 4.28; T 4.48; V 3.22; W 2.15; Y 2.85
A18: C 2.25; D 3.84; E 3.37; F 1.76; G 3.65; H 2.79; I 2.21; K 3.03; L 2.29; M 1.94; N 3.35; P 3.57; Q 3.79; R 2.76; S 3.4; T 3.45; V 2.6; W 2.43; Y 2.69
L19: A 3.87; C 4.26; D 3.97; E 4.76; F 2.09; G 4.26; H 3.76; I 3.03; K 3.67; M 3.16; N 3.86; P 4.24; Q 4.22; R 2.96; S 4.41; T 4.34; V 3.47; W 3.15; Y 3.41
R20: A 3.21; C 2.92; D 3.56; E 3.74; F 1.5; G 3.03; H 2.63; I 1.39; K 3.67; L 2.44; M 2.13; N 3.74; P 2.87; Q 3.49; S 3.19; T 2.88; V 1.46; W 2.43; Y 2.25
E21: A 2.42; C 2.37; F 1.7; G 3.24; H 2.95; I 2.99; K 2.48; L 2.69; M 1.46; N 2.96; P 2.57; Q 2.45; R 3.02; S 2.35; T 2.4; V 2.46; W 3.91; Y 2.69
I22: A 3.82; C 3.32; D 4; E 4.04; F 2.18; G 3.66; H 4.06; K 4.29; L 3.11; M 3.29; N 4.22; P 4.54; Q 3.62; R 4.03; S 3.97; T 4.01; V 2.57; W 2.92; Y 3.35
R23: A 2.03; C 2.78; D 3.95; E 4.24; F 1.93; G 3.16; H 3.14; I 1.71; K 3.29; L 1.45; N 4.2; P 3.67; Q 3.29; S 2.75; T 2.74; V 1.44; W 2.03; Y 2.27
M24: C 2.76; D 3.73; E 3.41; F 2.6; G 3.07; H 3.59; I 2.97; K 3.11; L 2.74; N 2.95; P 3.43; Q 3.92; R 3.23; S 3.71; T 3.15; V 3.36; W 2.48; Y 3.86

Variants of: B2
Assay: as above
Details: c terminus: a fixed tail appended

Protein stability index: each site, then its substitutions
Y1: A 2.15; C 3.08; D 4.63; E 4.07; G 4.11; H 3.8; I 2.16; K 3.61; L 2.63; M 3.06; N 3.81; P 3.65; Q 4.13; T 3.37; V 1.76
